Literature values, collected in PMC6359293.

Tests used:
[1] = target: hsp70 (Homo sapiens) (UniProt P0DMV8)
[2] = target: Phosphoprotein XD XD (Measles morbillivirus) (UniProt P03422)
Chain of UniProt P03422 (P03422 457-507): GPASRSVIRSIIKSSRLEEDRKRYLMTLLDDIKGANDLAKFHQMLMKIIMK

Chain of UniProt P0DMV8 (P0DMV8 2-641): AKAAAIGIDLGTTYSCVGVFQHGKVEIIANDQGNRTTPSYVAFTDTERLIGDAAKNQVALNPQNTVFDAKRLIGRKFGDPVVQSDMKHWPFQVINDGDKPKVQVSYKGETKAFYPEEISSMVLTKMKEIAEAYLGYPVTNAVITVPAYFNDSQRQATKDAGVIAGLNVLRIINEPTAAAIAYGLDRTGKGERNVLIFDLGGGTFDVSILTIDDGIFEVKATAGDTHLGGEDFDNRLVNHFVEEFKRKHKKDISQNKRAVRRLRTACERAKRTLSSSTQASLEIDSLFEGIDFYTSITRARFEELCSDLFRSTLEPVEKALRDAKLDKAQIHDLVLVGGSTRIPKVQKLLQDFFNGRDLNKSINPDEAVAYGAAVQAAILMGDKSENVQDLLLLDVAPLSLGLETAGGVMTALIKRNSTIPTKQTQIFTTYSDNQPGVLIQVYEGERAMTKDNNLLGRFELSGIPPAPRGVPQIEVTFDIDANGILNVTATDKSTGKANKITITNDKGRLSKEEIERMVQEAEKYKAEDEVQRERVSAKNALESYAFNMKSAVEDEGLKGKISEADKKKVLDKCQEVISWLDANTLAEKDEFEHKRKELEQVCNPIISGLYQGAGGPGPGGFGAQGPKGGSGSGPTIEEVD

## Measles virus nucleoprotein NTAIL NTAIL (from UniProt P04851)
[1]
  Kd: 70 µM
[2]
  Kd: 3 µM
